Assays:
[1] = cellulose phosphorylation assay (33P-β-ATP radio-label incorporation into cellulose); type: biochemical; conditions: FIG. 11C, 11D
Description: Next, it was tested whether phosphorylation could be directed towards cellulose, the most abundant polymer on earth, by building chimeras comprising cellulose-binding CBMs. Both the CBM30 and CBM44 were chosen from the cellulase CelJ of the thermophilic, gram-positive bacterium Clostridium thermocellum, which bind cellulose with high affinity. The engineered protein containing CtCBM30 and CtCBM44 was purified. The starch-phosphorylation assay was modified to develop an assay for measure phosphorylation of cellulose, which was obtained from Sigma-Avicel PH-101. To measure dikinase activity, the cellulose was incubated with the engineered chimeric dikinase in question along with ^33P-β-ATP, the ^33P-β-ATP and enzyme were washed out, and radio-label incorporation into the cellulose was measured.

[2] = glucose release from native starch treated with combinations of amylases, dikinase and phosphatase; type: biochemical, Arabidopsis; conditions: BAM3, ISA3; 25° C., 60 minutes; FIG. 7
Description: FIG. 7 includes a plot showing the glucose released for native Arabidopsis starch that was incubated at 25° C. for 60 minutes with combinations of amylases (BAM+ISA), dikinase (At-GWD), or phosphatase (At-SEX4), undigested starch was pelleted with a high-speed spin, the supernatant sugars were hydrolyzed via acid hydrolysis and glucose content was measured.
To observe how GWDs can be utilized to enhance starch utilization, native Arabidopsis starch was first treated with combinations of BAM3, ISA3, St-GWD, and At-SEX4. a high-speed spin was performed to remove the undigested starch, any remaining oligo-saccharides were hydrolyzed, and glucose released into the supernatant was measured (FIG. 7). Glucose was only released upon addition of amylases.
Native Arabidopsis starch was treated with combinations of BAM3, ISA3, StGWD, and AtSEX4, performed a high-speed spin to remove the undigested starch, hydrolyzed any remaining oligo-saccharides, and measured glucose released into the supernatant (FIG. 7). Glucose was only released upon addition of amylases, as expected.

[3] = stability of purified, concentrated protein on storage; type: physicochemical; conditions: 4° C., concentrated to 18 mg/ml
Description: In addition, these constructs were purified using a 3-step purification scheme to sufficient purity for enzymatic assays (FIGS. 9B,D & 10A). Constructs that express each of the individual domains were identified, as well as constructs just lacking the cTP. Expression yields for these constructs ranged from 2-65 mg/1 L of E. coli using a 3-step purification. One of the most promising St-GWD constructs allowed the instant inventors to purify 60-65 mg of >95% pure St-GWD per liter of E. coli using a 3-step purification protocol (FIGS. 10A & 10B). Importantly, the purified protein was concentrated to 18 mg/ml and the protein was stable at 4° C. for >1 WEEK.

effect on glucose release when added to amylases [2] | Molecule | phosphorylation of cellulose [1] | time the protein was stable [3]
 | CtCBM30-StGWD: chimera of Clostridium thermocellum CelJ CBM30 and StGWD dikinase domain (protein, Chimeric Protein, chimera of Clostridium thermocellum CelJ CBM30 and StGWD dikinase domain) MGHHHHHHMEQKLISEEDLTSASSASAETVAPEGYRKLLDVQIFKDSPVVGWSGSGMGELETIGDTLPVDTTVTYNGLPTLRLNVQTTVQSGWWISLLTLRGWNTHDLSQYVENGYLEFDIKGKEGGEDFVIGFRDKVYERVYGLEIDVTTVISNYVTVTTDWQHVKIPLRDLMKINNGFDPSSVTCLVFSKRYADPFTVWFSDIKITSEDNEKSAPAIKVGVQINPVSGLPSGFQDLLHFVLDHVEDKNVETLLERLLEAREELRPLLLKPNNRLKDLLFLDIALDSTVRTAVERGYEELNNANPEKIMYFISLVLENLALSVDDNEDLVYCLKGWNQALSMSNGGDNHWALFAKAVLDRTRLALASKAEWYHHLLQPSAEYLGSILGVDQWALNIFTEEIIRAGSAASLSSLLNRLDPVLRKTANLGSWQIISPVEAVGYVVVVDELLSVQNEIYEKPTILVAKSVKGEEEIPDGAVALITPDMPDVLSHVSVRARNGKVCFATCFDPNILADLQAKEGRILLLKPTPSDIIYSEVNEIELQSSSNLVEAETSATLRLVKKQFGGCYAISADEFTSEMVGAKSRNIAYLKGKVPSSVGIPTSVALPFGVFEKVLSDDINQGVAKELQILMKKLSEGDFSALGEIRTTVLDLSAPAQLVKELKEKMQGSGMPWPGDEGPKRWEQAWMAIKKVWASKWNERAYFSTRKVKLDHDYLCMAVLVQEIINADYAFVIHTTNPSSGDDSEIYAEVVRGLGETLVGAYPGRALSFICKKKDLNSPQVLGYPSKPIGLFIKRSIIFRSDSNGEDLEGYAGAGLYDSVPMDEEEKVVIDYSSDPLITDGNFRQTILSNIARAGHAIEELYGSPQDIEGVVRDGKIYVVQTRPQM | robustly phosphorylated cellulose | 
almost doubled | St-GWD: full length Solanum tuberosum glucan, water dikinase, amino acids 1-1464 (protein, listed as Solanum tuberosum) MSNSLGNNLLYQGFLTSTVLEHKSRISPPCVGGNSLFQQQVISKSPLSTEFRGNRLKVQKKKIPMEKKRAFSSSPHAVLTTDTSSELAEKFSLGGNIELQVDVRPPTSGDVSFVDFQVTNGSDKLFLHWGAVKFGKETWSLPNDRPDGTKVYKNKALRTPFVKSGSNSILRLEIRDTAIEAIEFLIYDEAHDKWIKNNGGNFRVKLSRKEIRGPDVSVPEELVQIQSYLRWERKGKQNYPPEKEKEEYEAARTVLQEEIARGASIQDIRARLTKTNDKSQSKEEPLHVTKSDIPDDLAQAQAYIRWEKAGKPNYPPEKQIEELEEARRELQLELEKGITLDELRKTITKGEIKTKVEKHLKRSSFAVERIQRKKRDFGHLINKYTSSPAVQVQKVLEEPPALSKIKLYAKEKEEQIDDPILNKKIFKVDDGELLVLVAKSSGKTKVHLATDLNQPITLHWALSKSPGEWMVPPSSILPPGSIILDKAAETPFSASSSDGLTSKVQSLDIVIEDGNFVGMPFVLLSGEKWIKNQGSDFYVGFSAASKLALKAAGDGSGTAKSLLDKIADMESEAQKSFMHRFNIAADLIEDATSAGELGFAGILVWMRFMATRQLIWNKNYNVKPREISKAQDRLTDLLQNAFTSHPQYREILRMIMSTVGRGGEGDVGQRIRDEILVIQRNNDCKGGMMQEWHQKLHNNTSPDDVVICQALIDYKSDFDLGVYWKTLNENGITKERLLSYDRAIHSEPNFRGDQKGGLLRDLGHYMRTLKAVHSGADLESAIANCMGYKTEGEGFMVGVQINPVSGLPSGFQDLLHFVLDHVEDKNVETLLERLLEAREELRPLLLKPNNRLKDLLFLDIALDSTVRTAVERGYEELNNANPEKIMYFISLVLENLALSVDDNEDLVYCLKGWNQALSMSNGGDNHWALFAKAVLDRTRLALASKAEWYHHLLQPSAEYLGSILGVDQWALNIFTEEIIRAGSAASLSSLLNRLDPVLRKTANLGSWQIISPVEAVGYVVVVDELLSVQNEIYEKPTILVAKSVKGEEEIPDGAVALITPDMPDVLSHVSVRARNGKVCFATCFDPNILADLQAKEGRILLLKPTPSDIIYSEVNEIELQSSSNLVEAETSATLRLVKKQFGGCYAISADEFTSEMVGAKSRNIAYLKGKVPSSVGIPTSVALPFGVFEKVLSDDINQGVAKELQILMKKLSEGDFSALGEIRTTVLDLSAPAQLVKELKEKMQGSGMPWPGDEGPKRWEQAWMAIKKVWASKWNERAYFSTRKVKLDHDYLCMAVLVQEIINADYAFVIHTTNPSSGDDSEIYAEVVRGLGETLVGAYPGRALSFICKKKDLNSPQVLGYPSKPIGLFIKRSIIFRSDSNGEDLEGYAGAGLYDSVPMDEEEKVVIDYSSDPLITDGNFRQTILSNIARAGHAIEELYGSPQDIEGVVRDGKIYVVQTRPQM |  | > 1 WEEK

Source: US11155643B2, “Glucan kinases and methods for processing starch using the same” (University of Kentucky Research Foundation, priority 2017, dated 2021)
